± gives the standard deviation.
Assay: protein stability index of a GFP-peptide fusion (GPS, HEK-293T) (PSI 1-6); higher = more stable
Details: c terminus: a fixed tail appended
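Also: 24-mer peptide tiles fused after GFP, lentivirally expressed, FACS-sorted into six equal bins by GFP/DsRed ratio, decoded by Illumina sequencing, PSI is the read-weighted mean bin number.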

Sequence | protein stability index (treatment: DMSO) | protein stability index (treatment: MLN4924 1 uM, 8 h)
PDPEPPPVTPQVGEGRKSRKFSRL [SMG5] | 3.98 ± 0.27 | 4.14 ± 0.45
TPLDAFRMTSAAHYYPKLMSIMGN [GFOD1] | 2.12 ± 0.33 | 2.06 ± 0.093
KNSLFPSPISSISPGLHSFTDHQR [KCNK9] | 3.3 ± 0.25 | 3.27 ± 0.38
QGRFCTIFRSYSRGAQGILLVYDI [RAB40C] | 2.74 ± 0.61 | 3.1 ± 0.64
AEIPDGPPVVAHYDMSDTNSDPEV [C18orf25] | 5.65 ± 0.21 | 5.48 ± 0.23
GYQRKCYFISTVKRSWTSAQNACS [CD69] | 2.46 ± 0.66 | 1.85 ± 0.59
SFVTGSHVGELIIWDALDWTMQAY [WDR41] | 2.9 ± 0.72 | 3.21 ± 1.5
EMAFNTRCKEENTIILQQLLPLRT [NLN] | 2.54 ± 0.55 | 2.5 ± 0.32
RNGMASEGLNSSLCSPGHERRGTP [PSD2] | 4.72 ± 0.34 | 4.61 ± 0.28
RLYRLKLEELTKLQNNCTSSITRQ [TMEM120A] | 2.62 ± 0.092 | 2.81 ± 0.3
DPEPSGPHLPRVMLPGVLAGVSAE [SCNN1D] | 4.59 ± 0.43 | 4.33 ± 0.21
CNVDLLKIIQLGLTFMNEQGEYPP [CNOT7] | 2.96 ± 1.3 | 2.48 ± 0.18
LTHIEAQNKIRACGERLSLGLSRA [PDLIM7] | 2.83 ± 0.27 | 2.85 ± 0.12
AEGSNSESSDDDSEEAPSTSGMGF [SDE2] | 5.37 ± 0.15 | 5.26 ± 0.36
RNLYAYIQKLTQIETGENVTGMEL [PTPRD] | 2.41 ± 0.26 | 2.29 ± 0.53
NVYRKRRKYFADLAMNYKHGDPIP [TPH1] | 2.75 ± 0.13 | 2.9 ± 0.26
AYCLDQGAEDGDRAILYPCHGMSS [GALNT9] | 3.67 ± 0.29 | 3.69 ± 0.11
RLCLPALSQMGAQSSGKILLCPLC [TRIM15] | 2.35 ± 0.3 | 2.41 ± 0.21

Sequence | protein stability index (treatment: DMSO) | protein stability index (treatment: MLN4924 1 uM, 8 h)
ALRLAELARRRRRRQARREAEADK [NOP53] | 4.12 ± 0.21 | 4.37 ± 0.82
GFGLAHTPLEPDAKDLPCDSKPES [TBX5] | 5.38 ± 0.51 | 5.47 ± 0.43
MASRKTKKKEGGALRAQRASSNVF [MYL5] | 4.13 ± 0.15 | 4.05 ± 0.25
VRSGAWHFSFNVKFYPPDPAQLSE [EPB41L3] | 1.98 ± 0.61 | 2.53 ± 0.18
AVVHEYALAVCLSFFYPVLFVLFM [SOAT1] | 3.29 ± 0.42 | 3.02 ± 0.21
STDNIVSQWDVLSGDCDQRFRFPS [RBBP5] | 3.64 ± 0.1 | 3.67 ± 0.16
REGALRAALQRSLAAALAQHSVPL [TRADD] | 2.25 ± 0.3 | 2.28 ± 0.2
ELDPEVEGTKPSATEMIWAVLAAF [GOLPH3L] | 2.21 ± 0.36 | 2.37 ± 0.28
KMSLYSEADSGYGSYGGFASAPTT [TRIM9] | 3.15 ± 0.36 | 3.18 ± 0.12
QMREAFATAFSKLKPESSQQPGQD [ZBED1] | 4.57 ± 0.19 | 4.62 ± 0.094
LERNPNGVADGVIKSVLWQTLQAL [CDKL4] | 2.28 ± 0.94 | 2.56 ± 1.1
ERRRELVRSQTLPRTSEAQARKAL [SMTNL2] | 5.27 ± 0.39 | 5.27 ± 0.29
YLILALLSVTISFRIYKSVIQAVQ [RTN3] | 3.42 ± 0.42 | 2.99 ± 0.48
YIMTRDYLTVKVWDLNMENRPIET [PPP2R2B] | 2.16 ± 0.5 | 2.45 ± 0.26
HMEGLIVRERILGADNIDVSHPII [FEM1B] | 3.25 ± 0.23 | 2.95 ± 0.28
TFILKNPPENSDSGTGKKEKEKKN [EIF5] | 4.94 ± 0.3 | 5.137 ± 0.05
DNAIMLFSPDFTLRNTLKSTSEDS [FAN1] | 4.22 ± 0.34 | 4.2 ± 0.5
ADVWSLGVMLYTLLVGRYPFHDSD [TRIB1] | 3.15 ± 0.26 | 2.58 ± 0.26
